# Data taken from patent publication US12391751B2, “Antibody against advanced glycation end products and use thereof” (Bloom Technology Corporation, priority 2018, dated 2025).
# B1: SJ-5: mouse monoclonal antibody raised against GAL13-MSA; heavy-chain variable region SEQ ID NO 4, light-chain variable region SEQ ID NO 8 (antibody, listed as Mus musculus, V domains shown)
# VH: EVMLVESGGRLVKPGGSLKLSCAASGFTFSSYGMSWVRQTPEKRLEWVATISGGGSYTYYPDSVKGRFTISRDNVKNNLYLQMSSLRSEDTALYYCARRGAYGDYGWFAYWGQGTLVTVSA
# VL: DIVLTQSPATLSVTPGDSVSLSCRASQSINNNLHWYQQKSHESPRLLIKCASQSISGIPSRFSGSGSGTDFTLSINSVETEDFGMYFCQQSNSWPLTFGAGTKLELK
# Assays:
# Type in all cases: binding
# CML-BSA = CML-BSA (Bos taurus, UniProt P02769); assay: Specificity of SJ-5 by competitive ELISA (Example 7); settings: GAL13-BSA or Glycer-AGEs-BSA immobilized, POD-labeled SJ-5 0.4 μg/mL
# Sequence of CML-BSA (P02769 25-607): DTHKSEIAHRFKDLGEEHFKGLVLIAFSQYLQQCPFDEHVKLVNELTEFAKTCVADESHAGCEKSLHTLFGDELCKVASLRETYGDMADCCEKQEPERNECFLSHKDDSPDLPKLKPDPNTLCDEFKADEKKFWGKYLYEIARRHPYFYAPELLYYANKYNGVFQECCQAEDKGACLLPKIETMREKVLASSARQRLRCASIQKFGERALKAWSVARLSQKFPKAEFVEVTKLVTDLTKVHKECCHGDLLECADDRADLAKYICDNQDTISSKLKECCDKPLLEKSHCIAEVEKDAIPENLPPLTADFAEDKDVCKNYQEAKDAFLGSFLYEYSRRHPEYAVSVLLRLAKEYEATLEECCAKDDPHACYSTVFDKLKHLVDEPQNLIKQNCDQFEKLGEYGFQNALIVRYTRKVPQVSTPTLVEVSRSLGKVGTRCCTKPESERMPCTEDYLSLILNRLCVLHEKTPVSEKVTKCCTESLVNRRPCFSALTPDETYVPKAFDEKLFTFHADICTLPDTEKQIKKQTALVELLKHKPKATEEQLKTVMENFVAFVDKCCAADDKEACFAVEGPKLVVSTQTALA
# Experimental: (§1) GAL13-BSA or Glycer-AGEs-BSA prepared into 1 μg/mL with PBS (pH 7.4) was added as an immobilized antigen at 100 μL/well to a 96-well microtiter plate (NUNC) and left at 25° C. for 1 hour. The antigen was immobilized overnight at 4° C. The plate was washed three times with PBS containing 0.05% (v/v) Tween 20 (PBS-T) and then blocked with a carbonate buffer solution (pH 9.5) containing 0.5% (w/v) gelatin for 1 hour. A POD-labeled SJ-5 antibody (0.4 μg/mL) was prepared under the same conditions as in Example 6. In order to confirm specificity, BSA containing AGEs derived from glucose (Glu-AGEs-BSA), BSA containing AGEs derived from glycolaldehyde (Glycol-AGEs-BSA), BSA containing AGEs derived from methylglyoxal (MGO-AGEs-BSA), BSA containing AGEs derived from glyoxal (GO-AGEs-BSA), BSA containing N^ε-carboxymethyllysine (CML-BSA), BSA containing N^ε-carboxyethyllysine (CEL-BSA), and bovine serum albumin (BSA) were added at 50 μL/well to the antigen-immobilized plate in the same way as above, and the POD-labeled SJ-5 antibody (50 μL) was further added thereto, and stirred with a plate mixer, and then left standing at room temperature for 1 hour. After washing, an o-phenylenediamine solution (100 μL) prepared into 0.5 mg/mL with a 0.1 M citrate-phosphate buffer solution (pH 5.0) containing 0.02% (w/v) hydrogen peroxide was added to each well and left standing at 25° C. for 10 minutes. Then, color reaction was terminated by the addition of a 1 M sulfuric acid solution (50 μL) to each well. Then, absorbance at 490 nm was measured with a microplate reader.
# Glycol-AGEs-BSA = Glycol-AGEs-BSA (Bos taurus, UniProt P02769); assay: as above; settings: GAL13-BSA or Glycer-AGEs-BSA immobilized, POD-labeled SJ-5 0.4 μg/mL
# Sequence of Glycol-AGEs-BSA (P02769 25-607): as above
# Experimental: as §1
# MGO-AGEs-BSA = MGO-AGEs-BSA (Bos taurus, UniProt P02769); assay: as above; settings: GAL13-BSA or Glycer-AGEs-BSA immobilized, POD-labeled SJ-5 0.4 μg/mL
# Sequence of MGO-AGEs-BSA (P02769 25-607): as above
# Experimental: as §1
# GO-AGEs-BSA = GO-AGEs-BSA (Bos taurus, UniProt P02769); assay: as above; settings: GAL13-BSA or Glycer-AGEs-BSA immobilized, POD-labeled SJ-5 0.4 μg/mL
# Sequence of GO-AGEs-BSA (P02769 25-607): as above
# Experimental: as §1
# Glycer-AGEs-BSA = Glycer-AGEs-BSA (Bos taurus, UniProt P02769); assay: as above; settings: GAL13-BSA or Glycer-AGEs-BSA immobilized, POD-labeled SJ-5 0.4 μg/mL
# Sequence of Glycer-AGEs-BSA (P02769 25-607): as above
# Experimental: as §1
# Glu-AGEs-BSA = Glu-AGEs-BSA (Bos taurus, UniProt P02769); assay: as above; settings: GAL13-BSA or Glycer-AGEs-BSA immobilized, POD-labeled SJ-5 0.4 μg/mL
# Sequence of Glu-AGEs-BSA (P02769 25-607): as above
# Experimental: as §1
# CEL-BSA = CEL-BSA (Bos taurus, UniProt P02769); assay: as above; settings: GAL13-BSA or Glycer-AGEs-BSA immobilized, POD-labeled SJ-5 0.4 μg/mL
# Sequence of CEL-BSA (P02769 25-607): as above
# Experimental: as §1
# [1] = Reactivity of SJ-5 with Lys-hydroxy-triosidine by competitive ELISA (Example 18); settings: immobilized Glycer-AGEs-BSA
# Experimental: A solution of BSA containing AGEs derived from glyceraldehyde (stock solution: 10 mg/mL PBS solution) prepared into 1 μg/mL in a coating solution was added at 100 μL/well to a 96-well microtiter plate (COSTAR) and incubated overnight at 4° C.
# Each well after the immobilization treatment was washed three times with a washing solution (300 μL), and a blocking solution (200 μL) was added thereto and left at room temperature for 1 hour.
# GAL691 (prepared in Example 16) and Lys-hydroxy-triosidine (prepared in Example 17) were each dissolved in a phosphate buffer solution (0.2 M, pH 7.4) to prepare a 10 mg/mL solution. Sample solutions of 2-fold dilution series from 0.625 to 10 mg/ml (5 points) were further prepared by dilution with a diluting solution. Dilution solutions were also prepared from a blank solution containing no sample in the same way as above. […]
# Absorbance was measured at a dominant wavelength of 450 nm and a sub-wavelength of 650 nm with a microplate reader (Cytation 5, BioTek Instrument Inc.), and the absorbance at the sub-wavelength was subtracted from the absorbance at the dominant wavelength. Change in the absorbance of GAL691 and Lys-hydroxy-triosidine was indicated as relative values to the absorbance of the blank solution.
molecule,measurement,setting,value
B1,specificity: reactivity with CML-BSA,CML-BSA,negative
same,specificity: reactivity with Glycol-AGEs-BSA,Glycol-AGEs-BSA,positive
same,specificity: reactivity with MGO-AGEs-BSA,MGO-AGEs-BSA,negative
same,specificity: reactivity with GO-AGEs-BSA,GO-AGEs-BSA,negative
same,specificity: reactivity with Glycer-AGEs-BSA,Glycer-AGEs-BSA,positive
same,specificity: reactivity with Glu-AGEs-BSA,Glu-AGEs-BSA,negative
same,specificity: reactivity with CEL-BSA,CEL-BSA,negative
same,recognition of Lys-hydroxy-triosidine,[1],does not recognize
